Experimental data taken from US20100016697.

Target: T1, MT1-MMP specific fluorogenic substrate MCA-Pro-Leu-Ala-Cys(p-OmeBz)-Trp-Ala-Arg(Dpa)-NH2
T1 chain: PLACWAR

Row | Protein | fluorescence emission (cleavage of the quenched fluorogenic substrate)
1 | MMP-2 (part of MMP-2/9, Chemicon) (protein) YNFFPRKPKWDKNQITYRIIGYTPDLDPETVDDAFARAFQVWSDVTPLRFSRIHDGEADIMINFGRWEHGDGYPFDGKDGLLAHAFAPGTGVGGDSHFDDDELWTLGEGQVVRVKYGNADGEYCKFPFLFNGKEYNSCTDTGRSDGFLWCSTTYNFEKDGKYGFCPHEALFTMGGNAEGQPCKFPFRFQGTSYDSCTTEGRTDGYRWCGTTEDYDRDKKYGFCPETAMSTVGGNSEGAPCVFPFTFLGNKYESCTSAGRSDGKMWCATTANYDDDRKWGFCPDQGYSLFLVAAHEFGHAMGLEHSQDPGALMAPIYTYTKNFRLSQDDIKGIQELYGASPDIDLGTGPTPTLGPVTPEICKQDIVFDGIAQIRGEIFFFKDRFIWRTVTPRDKPMGPLLVATFWPELPEKIDAVYEAPQEEKAVFFAGNEYWIYSASTLERGYPKPLTSLGLPPDVQRVDAAFNWSKNKKTYIFAGDKFWRYNEVKKKMDPGFPKLIADAWNAIPDNLDAVVDLQGGGHSYFFKGAYYLKLENQSLKSVKFGSIKSDWLGC | Incubation with MMP-2/9, MMP-8, or ADAM-10 and 17 alone failed to cause fluorescence emission from the MT1-MMP substrate.
2 | a disintegrin and metalloproteinase (ADAM)-10 (R&D Systems) (protein) TTSAEKNTCQLYIQTDHLFFKYYGTREAVIAQISSHVKAIDTIYQTTDFSGIRNISFMVKRIRINTTADEKDPTNPFRFPNIGVEKFLELNSEQNHDDYCLAYVFTDRDFDDGVLGLAWVGAPSGSSGGICEKSKLYSDGKKKSLNTGIITVQNYGSHVPPKVSHITFAHEVGHNFGSPHDSGTECTPGESKNLGQKENGNYIMYARATSGDKLNNNKFSLCSIRNISQVLEKKRNNCFVESGQPICGNGMVEQGEECDCGYSDQCKDECCFDANQPEGRKCKLKPGKQCSPSQGPCCTAQCAFKSKSEKCRDDSDCAREGICNGFTALCPASDPKPNFTDCNRHTQVCINGQCAGSICEKYGLEECTCASSDGKDDKELCHVCCMKKMDPSTCASTGSVQWSRHFSGRTITLQPGSPCNDFRGYCDVFMRCRLVDADGPLARLKKAIFSPELYENIAE | Incubation with MMP-2/9, MMP-8, or ADAM-10 and 17 alone failed to cause fluorescence emission from the MT1-MMP substrate.
